In patent US20150246959A1 (US Dept. of Health and Human Services, published 2015):
Numbering of substitutions follows the chain as printed. Names may count otherwise.

B1: a1 substituted 6F9 TCR (alpha chain S116A) (TCR, V domains shown)
V domain 1: QTVTQSQPEMSVQEAETVTLSCTYDTSESDYYLFWYKQPPSRQMILVIRQEAYKQQNATENRFSVNFQKAAKSFSLKISDSQLGDAAMYFCALRASGTYKYIFGTGTRLKVLA
V domain 2: GAGVSQSPSNKVTEKGKDVELRCDPISGHTALYWYRQSLGQGLEFLIYFQGNSAPDKSGLPSDRFSAERTGGSVSTLTIQRTQQEDSAVYLCASIRTGPFFSGNTIYFGEGSWLTVVE
B2: a2 substituted 6F9 TCR (alpha chain S117A) (TCR, V domains shown)
V domain 1: B1 V domain 1 with A95S, S96A
V domain 2: B1 V domain 2

Target: MAGE-A3 full-length protein processed and presented by HLA-DP4 on cells (human)
Sequence (P20036 29-260, chain 1 of 2): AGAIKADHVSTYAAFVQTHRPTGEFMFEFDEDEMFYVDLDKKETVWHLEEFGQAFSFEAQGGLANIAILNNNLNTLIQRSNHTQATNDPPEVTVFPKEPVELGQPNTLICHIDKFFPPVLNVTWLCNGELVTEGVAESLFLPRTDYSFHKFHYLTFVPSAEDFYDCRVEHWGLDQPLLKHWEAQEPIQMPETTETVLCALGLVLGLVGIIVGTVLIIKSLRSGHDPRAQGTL
Sequence (P43357 whole entry, chain 2 of 2, further chain): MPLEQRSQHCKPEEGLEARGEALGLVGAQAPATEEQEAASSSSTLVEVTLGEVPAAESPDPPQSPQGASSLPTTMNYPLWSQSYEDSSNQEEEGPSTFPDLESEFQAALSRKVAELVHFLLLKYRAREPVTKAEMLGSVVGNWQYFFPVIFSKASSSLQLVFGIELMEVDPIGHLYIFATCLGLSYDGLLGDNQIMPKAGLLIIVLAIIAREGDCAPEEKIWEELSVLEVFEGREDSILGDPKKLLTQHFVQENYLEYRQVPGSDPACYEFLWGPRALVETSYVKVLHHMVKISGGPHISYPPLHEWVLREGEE
Test: cell-based or functional assay

| fold increase in anti-tumor activity (IFN-gamma) against wt 6F9 TCR, CD4+ enriched PBL [fold] | Binder |
| --- | --- |
| ~2 | B1 |
| ~2 | B2 |
